Reference: patent US20220033441A1 (LEIDOS, published 2022)

B1: Peptide LG56 (peptide)
peptide: HIQNWSYWLNQDMMNQQVWKS
notes: peptide positive control in the LAG3/FGL1 assay
B2: Peptide LG11 (peptide)
peptide: SAPWEPLHWPEDWWQGTGEW
notes: positive peptide control in the LAG3/MHC-II assay

These binders were tested against T1, human LAG3 (Human LAG3/FGL1 TR-FRET Binding Assay, BPS Bioscience) (human, UniProt P18627 23-450, limits assumed) (assay: TR-FRET competition, inhibition of LAG3:FGL1 binding).
T1 construct: Kit reagent (BPS Bioscience); construct not described
T1 sequence (looked up): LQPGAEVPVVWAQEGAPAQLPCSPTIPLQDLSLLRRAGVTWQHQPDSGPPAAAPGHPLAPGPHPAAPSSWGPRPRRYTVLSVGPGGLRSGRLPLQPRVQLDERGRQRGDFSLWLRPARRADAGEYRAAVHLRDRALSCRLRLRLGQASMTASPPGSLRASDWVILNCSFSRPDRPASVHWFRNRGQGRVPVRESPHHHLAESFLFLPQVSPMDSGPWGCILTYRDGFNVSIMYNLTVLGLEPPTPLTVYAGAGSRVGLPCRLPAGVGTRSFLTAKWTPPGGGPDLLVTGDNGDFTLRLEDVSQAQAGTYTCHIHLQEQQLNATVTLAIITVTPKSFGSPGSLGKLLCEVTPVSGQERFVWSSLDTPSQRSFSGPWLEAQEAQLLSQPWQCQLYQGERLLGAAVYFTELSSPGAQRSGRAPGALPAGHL
Procedure: Reaction mixes were incubated 1 hr at RT before development. After development, plate was read in a Tecan M1000 TR-FRET instrument.

For AEFDHFDVGQTLDIASWDSY (20-mer peptide) [peptide 69], which IC50 is on record?
The IC50 was 3.3 µM.

For EHNREQVLEVMYSFQVNDYF (20-mer peptide) [peptide 154], which IC50 is on record?
The IC50 was 7.2 µM.

With VFRMDWDEKEVRLYADDILL (20-mer peptide) [peptide 146] as the binder, how does the IC50 read?
Its IC50 is 7.2 µM.

ITMWGYDTDEDDNLVIYLTD (20-mer peptide) [peptide 6] was tested. Which IC50 did it give?
The IC50 was 2.6 µM.

How did the IC50 turn out when TVDADGDLYFDMEEGVLVFM (20-mer peptide) [peptide 41] was run?
Its IC50 is 9.2 µM.

For RTDRYTLSYIWTSDEWMLFD (20-mer peptide) [peptide 115], which IC50 is on record?
Its IC50 is 9.1 µM.

Which IC50 does the source give for EDKAPWWQLDMEFEFRLDRV (20-mer peptide) [peptide 68] here?
The IC50 was about 21 µM.

Which IC50 does the source give for B1 here?
The IC50 was 14 µM.

The binders below were run against T2, Tag1-LAG3 protein (UniProt P18627 23-450, limits assumed) (assay: HTRF (TR-FRET) competition, inhibition of LAG3:MHC-II binding).
T2 construct: Kit reagent (Cisbio); Tag1 is not identified
T2 sequence (looked up): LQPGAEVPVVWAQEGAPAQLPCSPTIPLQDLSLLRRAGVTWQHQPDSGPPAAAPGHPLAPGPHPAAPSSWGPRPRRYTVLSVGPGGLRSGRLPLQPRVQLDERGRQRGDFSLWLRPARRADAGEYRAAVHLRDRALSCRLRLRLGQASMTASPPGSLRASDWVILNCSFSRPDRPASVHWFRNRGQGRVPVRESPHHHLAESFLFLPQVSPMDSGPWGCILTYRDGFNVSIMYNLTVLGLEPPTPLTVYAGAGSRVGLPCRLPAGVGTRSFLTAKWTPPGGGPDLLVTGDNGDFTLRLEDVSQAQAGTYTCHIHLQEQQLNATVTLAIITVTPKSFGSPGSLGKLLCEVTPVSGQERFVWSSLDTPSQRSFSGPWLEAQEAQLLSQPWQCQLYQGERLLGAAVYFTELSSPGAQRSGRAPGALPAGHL
Procedure: Anti-Tag1-Tb and anti-Tag2-XL665 antibodies were added and incubated for one hour, then simultaneous measurement of both […] cryptate and 665 nm acceptor emissions were read.

GGVAIFLALFGGMVSSWEWD (20-mer peptide) [peptide 141] was tested. Which IC50 did it give?
Its IC50 is 6.69 µM.

For RERGGDDFAQDDYYVTIFYR (20-mer peptide) [peptide 11], which IC50 is on record?
The IC50 was 0.353 µM.

With VFRMDWDEKEVRLYADDILL (20-mer peptide) [peptide 146] as the binder, how does the IC50 read?
Its IC50 is 0.199 µM.

Which IC50 does the source give for B2 here?
Its IC50 is 18.4 µM.

How did the IC50 turn out when QGSTSGWGFGAMYELTYDVY (20-mer peptide) [peptide 16] was run?
The IC50 was 0.22 µM.

How did the IC50 turn out when LAGHYHYLTAGSQDIYEYND (20-mer peptide) [peptide 62] was run?
The IC50 was 0.308 µM.

For SLPYSNIYIELDSGYWNSES (20-mer peptide) [peptide 155], which IC50 is on record?
Its IC50 is 0.13 µM.

For RTDRYTLSYIWTSDEWMLFD (20-mer peptide) [peptide 115], which IC50 is on record?
The IC50 was 0.154 µM.

Which IC50 does the source give for RVPAPVKEQVQKQYPNAGAI (also called Low Activity Peptide) [Peptide 93] here?
The IC50 was 63 µM.

With EDKAPWWQLDMEFEFRLDRV (20-mer peptide) [peptide 68] as the binder, how does the IC50 read?
Its IC50 is 2.94 µM.
